For series [1], the target named is T1, IBV nsp9 wild-type (avian infectious bronchitis virus (IBV) …, UniProt P0C6Y3 3675-3785).
T1 sequence: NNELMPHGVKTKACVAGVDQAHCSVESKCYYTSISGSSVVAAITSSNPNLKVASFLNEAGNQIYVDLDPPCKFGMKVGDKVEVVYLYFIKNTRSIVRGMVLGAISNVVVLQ
As to the kind of experiment: BLI.

The target of series [2] is T1, IBV nsp9 wild-type. As to the kind of experiment: zone-interference gel electrophoresis.

This note sets out measurements from paper PMC5405427.

What is called Kd is a measure of binding affinity in units of concentration. In the series with IBV nsp9 wild-type [1], CGACUCAUGGACCUUGGCAG (ssRNA, phosphorothioate linkages at last two 3' residues (A19, G20)) [20-mer RNA, biotin (BLI)] came in with a Kd of 28 µM.
Turning to CGACTCATGGACCTTGGCAG (ssDNA) [20-mer ssDNA], in the series with IBV nsp9 wild-type [2], the binding result is reported as “binds”.
